Data on 8 molecules can be found in US20260116991A1 (HAINAN SIMCERE ZAIMING PHARMACEUTICAL, published 2026).

Test [1] concerns the target T1, human GPC3-His protein (human, UniProt P51654 25-559).
T1 construct: Bought protein; also called human GPC3 protein; not shown: His tag
Put plainly: ELISA, coated human GPC3, antibody 0.001 nM. A general note: ELISA stands for enzyme-linked immunosorbent assay.

In test [2] the target is T1, human GPC3-His protein. Put plainly: ELISA, coated human GPC3, antibody 10 nM.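 Note: plate coated with antigen at 1 µg/mL, antibodies bound 2 h at 37 °C, detected via HRP-conjugated secondary antibody and TMB substrate, absorbance read after acid stop.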
The target of test [3] is T1, human GPC3-His protein. Put plainly: ELISA, coated human GPC3, antibody 0.0001 nM.
In test [4] the target is T2, GPC3 endogenously expressed on HepG2 cells (UniProt P51654 25-554).
T2 construct: whole, on cells
As to the kind of experiment: FACS on HepG2 cells.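 Note: flow cytometric binding of chimeric antibodies to cells, read as mean fluorescence intensity, EC50 obtained by curve fitting of the MFI data.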

The target in test [5] is T1, human GPC3-His protein. Put plainly: ELISA, coated human GPC3, antibody 100 nM.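 Note: antibodies bound to antigen-coated 96-well plates (1 µg/mL), 2 h at 37 °C, detected with HRP-labelled secondary antibody and TMB substrate, absorbance read at 450 nm.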
Protocol: (§1) The specific method is described as follows: The antigen protein was diluted with PBS to a final concentration of 1 μg/mL, and the diluent was added to a 96-well ELISA plate at 50 μL/well. The plate was sealed with a plastic film and incubated at 4° C. overnight, washed twice with PBS the next day, and a blocking solution [PBS+2% (w/w) BSA] was added for blocking at room temperature for 2 h. […] After incubation at 37° C. for 2 h, the plate was washed 3 times with PBS. A horseradish peroxidase (HRP)-labeled secondary antibody (purchased from Merck, Cat. No. AP113P) was added for incubation at 37° C. for 1 h, and the plate was washed 5 times with PBS. A TMB substrate was added at 50 μL/well for incubation at room temperature for 10 min, then a stop solution (1.0M HCl) was added at 50 μL/well. An ELISA plate reader (Multimode Plate Reader, EnSight, purchased from Perkin Elmer) was used to read OD_{450 nm} values, with results as shown in Table 4 to Table 6, FIG. 1A, FIG. 1B, and FIG. 1C.
Test [6] addresses T1, human GPC3-His protein. As to the kind of experiment: ELISA, coated human GPC3, antibody 0.01 nM.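 Note: Plate-bound antigen coated at 1 µg/mL, antibody incubated 2 h at 37 °C, binding detected by HRP-conjugated secondary antibody with TMB substrate, read as absorbance at 450 nm.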
Protocol: as §1
The target of test [7] is T1, human GPC3-His protein. As to the kind of experiment: ELISA, coated human GPC3, antibody 0.1 nM.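 Note: antigen coated on 96-well plates at 1 µg/mL, antibody bound 2 h at 37 °C, detected with HRP-labeled secondary antibody and TMB substrate, acid-stopped.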
Protocol: as §1
Test [8] concerns the target T1, human GPC3-His protein. Put plainly: ELISA, coated human GPC3, antibody 1 nM.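 Note: antigen coated at 1 µg/mL on 96-well plates, antibody bound for 2 h at 37 °C, detected with HRP-labeled secondary antibody and TMB, absorbance read at 450 nm.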
Protocol: as §1
The target of test [9] is T3, human GPC3 on CHO-K1-human GPC3 cells (clone CHOK1-hGPC3.2B5) (human, UniProt P51654 25-554).
T3 construct: whole, on cells; Stably transfected CHO-K1 clone 2B5
Put plainly: FACS on CHOK1-hGPC3.2B5 cells.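 Note: flow cytometry binding of chimeric antibodies to the cells, read out as mean fluorescence intensity, with the half-maximal concentration derived by curve fitting.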
Protocol: The desired cells were expanded to a logarithmic growth phase in a T-75 cell culture flask, the medium was removed by pipetting, and the cells were washed twice with a PBS buffer, and digested with trypsin. Then a complete medium was added to stop the digestion, and the cells were blown into a single cell suspension. After counting, the cells were centrifuged, and the cell pellet was resuspended with an FACS buffer (PBS+2% fetal bovine serum) to 2×10⁶ cells/mL. The cell resuspension solution was added to a 96-well FACS reaction plate at 50 μl/well, and a chimeric antibody sample to be tested was added at 50 μl/well for incubation at 4° C. for 1 h. […] After the plate was centrifuged and washed 3 times with a PBS buffer, 100 μl of the resulting solution was assayed and analyzed by FACS (FACS Canto™, purchased from BD Biosciences). Data analysis was performed by software (FlowJo) to obtain the mean fluorescence intensity (MFI) of the cells. Then, analysis was performed by software (GraphPad Prism8), data were fitted, and EC₅₀ values were calculated.

B1: F1.153.1 human-murine chimeric antibody (antibody, human IgG1, kappa, V domains shown)
VH: QIQLVQSGPELKKPGETVKISCKASGYTFTTAGMQWVQKMPGKGFKWIGWINTHSGEPQYAEDFKGRFAFSLETSASTAYLQISNLKNEDTATYFCARSFYYHGSSFFYFDYWGQGTTLTVSS
VL: DIVMTQSQKFMSTTVGDRVSITCKASQNVGTAVAWYQQKPGQSPKLLIYSASNRYTGVPDRFTGSGSGADFTLTISNMQSEDLADYFCQQYSRYPLTFGAGTKLELKR
As usually defined, the EC50 is the concentration that produces a half-maximal response. Take B1: the OD450 nm was found to be 0.1 OD450 in test [1]; 1.85 OD450 in test [2]; 0.11 OD450 in test [3]; 2.06 OD450 in test [5]; 0.15 OD450 in test [6]; 0.64 OD450 in test [7]. The same molecule gave an OD450 nm in [8] of 1.56 OD450. The results for the EC50 in test [4] and in test [9] were 1.3 nM and 0.91 nM, respectively. Also, the “Max MFI” value was 4100 MFI in test [4] and 3080 MFI in test [9].

B2: F1.62.9 human-murine chimeric antibody (antibody, human IgG1, kappa, V domains shown)
VH: QVQLQQSDAELVKPGASVKISCKVSGYIFTDHTIHWMKQRPEQGLEWIGYIYPRDGSIKYNENFKGKATLTADKSSSATYMQLNSLTSEDSAVYFCARPIYYDYAYYFDYWGQGTTLTVSS
VL: DVVMTQSPLSLPVSLGDQASISCRSRQSLVHSNGNTYLHWYLQKPGQSPKVLIYKVSNRFSGVPDRFSGSGSGTDFTLKISRVEAEDLGVYFCSQSTHVPYTFGGGTKLEIKR
Consider B2, for which the OD450 nm stood at 0.09 OD450 in test [1]; 0.96 OD450 in test [2]; 0.11 OD450 in test [3]; 1.09 OD450 in [5]; 0.1 OD450 in test [6]; 0.2 OD450 in test [7]. In [8], this molecule showed an OD450 nm of 0.63 OD450. The figures for the 50% effective concentration (EC50) in test [4] and in [9] were 1.32 nM and 3.49 nM, respectively. Besides, the “Max MFI” value turned out to be 3250 MFI in [4] and 2160 MFI in [9].

B3: F1.145.22 human-murine chimeric antibody (antibody, human IgG1, kappa, V domains shown)
VH: QVQLQQSGTDLARPGASVKLSCKASGYTFTSFGISWVKQRTGQGLEWIGEIYPRSGSPYYNEKFTGKATLTADKSSSTAYMELRSLTSEDSAVYFCAKDFGSSYVFDYWGQGTALTVSS
VL: DIQMTQSPASLSASVGETVTITCRASENIYSYLTWYQQKQGKSPQLLVYNAKTLAEGVPSRFSGSGSGTQFSLKINSLQPEDFGTYYCQHHYGTPPTFGTGTKLDLKR
For the molecule B3, the OD450 nm in [1] was 0.12 OD450; in [2] it was 2.35 OD450; in [3] it was 0.09 OD450; in [5] it was 2.53 OD450; in [6] it was 0.22 OD450; in [7], 0.94 OD450. In test [8], this molecule showed an OD450 nm of 1.95 OD450. The concentration for a half-maximal effect (EC50) in test [4] stood at 0.67 nM; in test [9], 1.18 nM. Further, the “Max MFI” value in test [4] was 2160 MFI; in [9] it was 9700 MFI.

B4: F1.118.4 human-murine chimeric antibody (antibody, human IgG1, kappa, V domains shown)
VH: QVQLQQSGAELAKPGASVKLSCKASGYSFTSYWIHWVKQRPGQGLEWIGYINPSSGYTKYNQKFKDKATLTADKSSSTAYMQLSSLTYEDSAVYYCARFGSSSFYFDYWGQGTTLTVSS
VL: DIVLTQSPASLAVSLGQRATISCRASQSVSSSSYSYMHWYQQKPGQPPKLLIKYASNLDSGVPARFSGSGSGTDFTLNIHPVEEEDTATYYCQHSWEIPAFGGGTKLEIKR
On to B4, for which the OD450 nm in test [1] was determined as 0.12 OD450; in test [2], 1.75 OD450; in [3], 0.1 OD450; in test [5] it was 1.53 OD450; in test [6], 0.19 OD450; in test [7] it was 0.74 OD450. In [8], this molecule yielded an OD450 nm of 1.64 OD450. In addition, the 50% effective concentration (EC50) worked out at 0.33 nM in test [4] and 0.53 nM in [9]. In addition, the “Max MFI” value in test [4] was 2810 MFI; in [9] it was 9640 MFI.

B5: F1.120.16 human-murine chimeric antibody (antibody, human IgG1, kappa, V domains shown)
VH: EFQLQQSGPELVKPGASVKISCKASGYSFTDYNMNWVKQSNGKSLEWIGLIHPKFSVTSYNRKFKGKATLTVDQSSSTAYMQLNSLTSEDSAVYYCARWAGDYFDYWGQGTTLTVSS
VL: DIVLTQSPATLSVTPGDSVSLSCRASQSISNNLHWYQQKSHESPRLLIKYASQSISGIPSRFSGSGSGTDFTLTINSVETEDFGMYFCQQSNSWPQTFGGGTKLEIKR
On to B5, for which the OD450 nm in test [1] turned out to be 0.14 OD450; in [2] it was 1.63 OD450; in test [3] it was 0.11 OD450; in test [5], 1.62 OD450; in test [6], 0.22 OD450; in [7], 0.56 OD450. Also, the OD450 nm in test [8] came out at 1.23 OD450. Moreover, the EC50 in test [4] is 0.38 nM; in test [9] it was 0.52 nM. Besides, the “Max MFI” value in [4] turned out to be 2080 MFI; in [9], 9730 MFI.

B6: F1.9.19 human-murine chimeric antibody (antibody, human IgG1, kappa, V domains shown)
VH: DVQLQESGPGLVKPSQSLSLTCSVTGYSITSGYYWNWIRQFPGNRLEWMAYISYDGINNYNPSLKNRISIARDTSTNQFFLKLNSVTSEDTATYYCATTTEVALFDHWGQGTTLTVSS
VL: DVLLTQTPLSLPVSLGDQASISCRSSQNIVHGNGNTYLEWFLQKPGQSPKLLIYKVSNRFSGVPDRFSGSGSGTDFTLKISRVEAEDLGLYYCFQASHVPWTFGGGTKLEIKR
Turning to B6, the OD450 nm in test [1] came out at 0.11 OD450; in [2], 1.85 OD450; in test [3] it was 0.1 OD450; in test [5], 1.88 OD450; in test [6], 0.16 OD450; in test [7] it was 0.58 OD450. In test [8], the OD450 nm came to 1.6 OD450. The half-maximal effective concentration (EC50) in test [4] came out at 1.12 nM; in test [9] it was 1.76 nM. Also, the “Max MFI” value in test [4] was 3780 MFI; in test [9], 2700 MFI.

B7: F1.3.9 human-murine chimeric antibody (antibody, human IgG1, kappa, V domains shown)
VH: QVQLQQPGTELVKPGASVKLSCKASGYTFTSYWIHWVKQRPGQGLEWIGNINPPNAGTNYNEKFKSKATLTVDKSSSTAYMQLSSLTSEDSAVYYCARGRWLLHDYWGQGTTLTVSS
VL: DIQMTQSPASLSISVGETVTITCRASENIYSNLAWYQQKQGKSPQLLVYGTKNLAEGVPSRFSGSGSGTQYSLKINSLQSEDFGNYYCQHFWGTPYTFGGGTKLEILR
Take B7: the OD450 nm in [1] was determined as 0.11 OD450; in test [2], 1.95 OD450; in test [3], 0.1 OD450; in test [5] it was 2.07 OD450; in test [6], 0.21 OD450; in test [7] it was 0.92 OD450. This molecule came in with an OD450 nm in [8] of 1.66 OD450. Moreover, the results for the half-maximal effective concentration (EC50) in [4] and in [9] were 0.8 nM and 2.78 nM, respectively. Further, the “Max MFI” value in test [4] was determined as 3810 MFI; in test [9], 3210 MFI.

B8: F1.136.7 human-murine chimeric antibody (antibody, human IgG1, kappa, V domains shown)
VH: EVQLQQSGPVMVKPGPSVKISCQTSGFTFTDYYIHWVKQSHGKSLEWIGLVFPYDGGTNYNQKFKDKATLTLDTSSSTAYMELNSLTSEDSAVYYCARAGGFSYALNYWGQGTSVTVSS
VL: DIQMTQSPSSLSASLGGKVTITCKASQDINNYIAWYQHKPGKGPRLLIHFTSTLQPGIPSRFSGSGSGRDYSFSISNLEPEDIATYYCLQYDNLLLTFGAGTKLELKR
Turning to B8, the OD450 nm is 0.1 OD450 in test [1]; 1.4 OD450 in [2]; 0.11 OD450 in test [3]; 1.19 OD450 in test [5]; 0.14 OD450 in test [6]; 0.43 OD450 in test [7]. In test [8], this molecule gave an OD450 nm of 0.63 OD450. Further, the values for the 50% effective concentration (EC50) in test [4] and in test [9] were 2 nM and 1.41 nM, respectively. The “Max MFI” value in [4] came out at 2240 MFI; in [9] it was 9540 MFI.
